From patent US20150216933A1, “HEMATOPOIETIC STEM CELL GROWTH FACTOR” (DUKE UNIVERSITY, priority 2008, published 2015) come the findings set out here.

Bounds are passed on as bounds.

For one assay, the system named is 34−KSL cells. Briefly: Competitive repopulating assay at 4 weeks (Example 1). The following applies: lineage repopulation in transplanted mice. In kind it is in vivo, mouse.
Assay [1] concerns long-term repopulating HSCs. The experiment in a line: Secondary competitive repopulating transplant assay. In kind it is in vivo, mouse. As for the experimental part:
Secondary competitive transplant assays were performed using whole BM harvested from primary CD45. 2^+ mice at 24 weeks following transplantation with either CD45. 1^+ BM 34^−KSL cells or the progeny of 34^−KSL cells following culture with TSF alone or TSF+PTN. Secondary recipient CD45. 2^+ C57Bl6 mice were irradiated with 950 cGy TBI and PB analysis of donor cell engraftment was performed at 12 weeks post-transplantation in secondary mice.
In order to confirm that PTN caused the amplification of long-term repopulating HSCs with serial repopulating capacity, secondary transplants were performed. Importantly, secondary CD45.

Another assay relates to BM 34−KSL cells. Briefly: Liquid suspension culture of BM 34−KSL cells with TSF with and without PTN x 7 days. In kind it is cell-based, mouse. The procedure:
The above “loss of function” studies strongly implicated PTN as a secreted growth factor for HSCs.
Purified BM 34^−KSL cells were isolated from C57Bl6 and B6.SJL mice (Jackson Laboratory, Bar Harbor, Me.) via flow cytometric cell sorting as previously described (Reya, et al, Nature 423:409-14 (2003), Salter et al, Blood 113:2104-7 (2009)). Liquid suspension cultures of BM 34^−KSL cells were supplemented with IMDM+10% FBS+1% pcn/strp+20 ng/ml thrombopoietin, 120 ng/ml SCF, and 50 ng/ml flt-3 ligand (“TSF” media) with and without recombinant (human) PTN (R&D Systems, Minneapolis, Minn.). Non-contact HUBEC cultures were conducted using 0.4 μm transwell inserts (Corning, Lowell Mass.) and supplemented with TSF media with and without goat anti-PTN or isotype control antibody (R&D). Phenotypic analysis for KSL cells was performed as previously described (Chute et al, Blood 109:2365-72 (2007), Salter et al, Blood 113:2104-7 (2009)).
Since PTN has no known function in regulating hematopoiesis (Meng et al, Proc Natl Acad Sci USA 97: 2603-8 (2000)), an examination was first made as to whether BM stem/progenitor cells expressed one or more of the PTN receptors, receptor protein tyrosine phosphatase β/ζ (RPTP β/ζ), Syndecan or anaplastic lymphoma kinase (ALK) (Stoica et al, J Biol Chem 276:16772-9 (2001), Landgraf et al, J Biol Chem 283:25036-45 (2008)). The majority of BM MNCs and c-kit+sca-1^+lin^− (KSL) stem/progenitor cells expressed RPTP β/ζ (n=3, mean 87.0%±8.8 and 89%, respectively; FIG. 6A), whereas neither population expressed Syndecan or ALK (data not shown). In order to determine whether PTN might be a growth factor for HSCs, C57Bl6 BM CD34^−KSL cells, which are highly enriched for HSCs (Kiel et al, Nat Rev Immunol 8:290-301 (2008), Salter et al, Blood 113:2104-7 (2009)), were isolated by FACS and placed in liquid suspension culture with 20 ng/mL thrombopoietin, 120 ng/mL SCF and 50 ng/mL Flt-3 ligand (“TSF”) with or without 10, 100 or 1000 ng/mL PTN.

Where [2] appears, read: 100 ng/mL PTN added to TSF, 7 days.
The mark [3] stands for this setting: increasing doses (10, 100, 1000 ng/mL) of rPTN with TSF, Example 1.

B1: PTN: Pleiotrophin, heparin binding growth factor; recombinant human PTN purchased from R&D systems (protein, UniProt P21246 33-168, looked up)
Pleiotrophin: GKKEKPEKKVKKSDCGEWQWSVCVPTSGDCGLGTREGTRTGAECKQTMKTQRCKIPCNWKKQFGAECKYQFQAWGECDLNTALKTRTGSLKRALHNAECQKTVTISKPCGKLTKPKPQAESKKKKKEGKKQEKMLD
In the case of B1, in the assay with 34−KSL cells, the “multilineage differentiation potential of HSCs” value is reported as “did not alter the normal multilineage differentiation potential”. Moreover, in assay [1] (12 weeks), the “multilineage differentiation in secondary mice” value is “normal multilineage differentiation”. In assay [1] (12 weeks post-transplant, BM harvested at 24 weeks from primary recipients), the “CD45.1+ cell engraftment in secondary mice, fold higher vs 34−KSL cell group or TSF alone group” value was more than 10 fold. Also, in the assay with BM 34−KSL cells (setting [2]), the “increase in total KSL stem/progenitor cells compared to TSF alone” value was 17.7 fold and the “increase in total cells compared to TSF alone” value is 6.4 fold. Also, the “total cells, % KSL cells and total KSL cells” value in the assay on BM 34−KSL cells (addition of 10 to 100 ng/mL PTN to TSF) is given as “dose responsive increase”. For the same molecule, in the assay on BM 34−KSL cells (setting [3]), the “KSL cells in culture compared to the progeny of cytokines alone” value is given as “significant increase” and the “total cells in culture compared to the progeny of cytokines alone” value is listed as “significant increase”.
